Laboratory results as given in publication PMC11195947.

Test system: His6-CusR (Pseudomonas paraeruginosa IHMA87)
Assay: EMSA
Conditions: apparent equilibrium constant (Keq); unphosphorylated CusR; 20 mM HEPES pH 7.9, 80 mM KCl, 20 mM MgCl2, 0.8 mM EDTA, 7.5% glycerol, 0.1 mM DTT, 25 C; 0.5 nM probe; native 5% TBE gel at 4 C

## PcusR probe (pcoA2-cusR intergenic 60-mer)
  Kd: 25 nM
